This passage reports Tm results from the array DNA melting data of Ke et al..

What is called Tm is the temperature at the midpoint of the melting transition.

A short description of the data set: melting temperature; UV melt of duplexes.

Regarding “CTCGTACCTTCCGGTCC+GGACCGGAAGGTACGAG (((((((((((((((((+)))))))))))))))))”, the Tm (sodium 0.1 M, strand 4 µM) came out at 60.6 °C.

Take “CTTCAACGGATCAGGTAGGACTGTGGTGGG+CCCACCACAGTCCTACCTGATCCGTTGAAG ((((((((((((((((((((((((((((((+))))))))))))))))))))))))))))))”: the midpoint of thermal melting (Tm) is, setting by setting: (sodium 0.07 M, strand 2 µM) 67.6 °C; (sodium 0.12 M, strand 2 µM) 71.7 °C; (sodium 0.22 M, strand 2 µM) 74.7 °C; (sodium 0.62 M, strand 2 µM) 78.8 °C; (sodium 1.02 M, strand 2 µM) 80.1 °C.

Take “TAACCATACTGAATACCTTTTGACG+CGTCAAAAGGTATTCAGTATGGTTA (((((((((((((((((((((((((+)))))))))))))))))))))))))”: the melting temperature (Tm) by setting is: (sodium 0.07 M, strand 2 µM) 56.5 °C; (sodium 0.12 M, strand 2 µM) 60.2 °C; (sodium 0.22 M, strand 2 µM) 64.3 °C; (sodium 0.62 M, strand 2 µM) 68.9 °C; (sodium 1.02 M, strand 2 µM) 71.3 °C.

Turning to “CCGTGCGGTGTGTACGTTTTATTCATCATA+TATGATGAATAAAACGTACACACCGCACGG ((((((((((((((((((((((((((((((+))))))))))))))))))))))))))))))”, the melting temperature (Tm) by setting is: (sodium 0.07 M, strand 2 µM) 63.9 °C; (sodium 0.12 M, strand 2 µM) 68.3 °C; (sodium 0.22 M, strand 2 µM) 71.8 °C; (sodium 0.62 M, strand 2 µM) 76.5 °C; (sodium 1.02 M, strand 2 µM) 77.6 °C.

For the substance “AAAGGTGTCGCGGAGAGTCGTGCTG+CAGCACGACTCTCCGCGACACCTTT (((((((((((((((((((((((((+)))))))))))))))))))))))))”, the midpoint of thermal melting (Tm) is, setting by setting: (sodium 0.07 M, strand 2 µM) 69.6 °C; (sodium 0.12 M, strand 2 µM) 73.6 °C; (sodium 0.22 M, strand 2 µM) 77.4 °C; (sodium 0.62 M, strand 2 µM) 81.2 °C; (sodium 1.02 M, strand 2 µM) 82.4 °C.

For the substance “AATATATATAGAGTGGCCGCAA+TTGCGGCCACTCTATATATATT ((((((((((((((((((((((+))))))))))))))))))))))”, for the setting “sodium 0.12 M, strand 6 µM”, the midpoint of thermal melting (Tm) was 65.2 °C.

Consider “CTCGTACCTTTCCGGTCC+GGACCGGAAAGGTACGAG ((((((((((((((((((+))))))))))))))))))”, for which the midpoint of thermal melting (Tm) (sodium 0.1 M, strand 4 µM) is 61.7 °C.

Turning to “ATATATATGAATTCATATATAT+ATATATATGAATTCATATATAT ((((((((((((((((((((((+))))))))))))))))))))))”, under “sodium 0.12 M, strand 6 µM”, the midpoint of thermal melting (Tm) stood at 48.9 °C.

Take “GTGGTGGGCCGTGCGCTCTG+CAGAGCGCACGGCCCACCAC ((((((((((((((((((((+))))))))))))))))))))”: the Tm (sodium 0.07 M, strand 2 µM) stood at 69.2 °C; the melting temperature (Tm) (sodium 0.12 M, strand 2 µM) was determined as 72.7 °C; the melting temperature (Tm) (sodium 0.22 M, strand 2 µM) is 76.2 °C; the Tm (sodium 0.62 M, strand 2 µM) came to 79.6 °C; the midpoint of thermal melting (Tm) (sodium 1.02 M, strand 2 µM) worked out at 81 °C.

As for “TACTTCCAGTGCTCAGCGTA+TACGCTGAGCACTGGAAGTA ((((((((((((((((((((+))))))))))))))))))))”, the Tm is, setting by setting: (sodium 0.07 M, strand 2 µM) 60.3 °C; (sodium 0.12 M, strand 2 µM) 64.4 °C; (sodium 0.22 M, strand 2 µM) 67.7 °C; (sodium 0.62 M, strand 2 µM) 71.6 °C; (sodium 1.02 M, strand 2 µM) 73.6 °C.

Take “ACTGGCGAGGATCCAGCGGTCA+TGACCGCTGGATCCTCGCCAGT ((((((((((((((((((((((+))))))))))))))))))))))”: the Tm (sodium 0.12 M, strand 4.1 µM) came out at 71.8 °C.

For the substance “ATAAATAAAGCTTTATTTAT+ATAAATAAAGCTTTATTTAT ((((((((((((((((((((+))))))))))))))))))))”, the midpoint of thermal melting (Tm) (sodium 0.12 M, strand 7 µM) was found to be 46.2 °C.

With “ATGCAATGCTACATATTCGC+GCGAATATGTAGCATTGCAT ((((((((((((((((((((+))))))))))))))))))))”, the melting temperature (Tm) turned out to be 55.2 °C (sodium 0.07 M, strand 2 µM); 59.5 °C (sodium 0.12 M, strand 2 µM); 62.9 °C (sodium 0.22 M, strand 2 µM); 67 °C (sodium 0.62 M, strand 2 µM); 68.9 °C (sodium 1.02 M, strand 2 µM).
